Columns and labels:
Experiment in all cases: cell-based or functional assay
[1] = molecular target: HIV-1 Env of isolate MGRM-AE-002 (HIV-1)
[2] = molecular target: HIV-1 92RW021 envelope glycoprotein (Env) on pseudovirus (HIV-1)
[3] = molecular target: HIV-1 Env of isolate MGRM-AE-001 (HIV-1)
[4] = molecular target: HIV-1 Env of isolate 92UG024 (clade D) (HIV-1)
[5] = molecular target: HIV-1 Env of pseudovirus 93TH305, clade B (HIV-1)
[6] = molecular target: HIV-1 98IN022 envelope glycoprotein (Env) on pseudovirus (HIV-1)
[7] = molecular target: HIV-1 LAVI_C22 Env (HIV-1)
[8] = molecular target: HIV-1 MGRM-F1-008 Env (pseudovirus) (HIV-1)
[9] = molecular target: HIV-1 94UG103 envelope glycoprotein (Env) on pseudovirus (HIV-1)
[10] = molecular target: HIV-1 MGRM-A-011 envelope glycoprotein (Env) (HIV-1)
[11] = molecular target: HIV-1 MGRM-C-019 Env (HIV-1)
[12] = molecular target: HIV-1 MGRM-C-017 Env (HIV-1)
[13] = molecular target: HIV-1 Env of isolate MGRM-D-019 (clade D) (HIV-1)
[14] = molecular target: HIV-1 APV_13 Env (pseudovirus) (HIV-1)
[15] = molecular target: HIV-1 Env of isolate 92UG001 (subtype D) (HIV-1)
[16] = molecular target: HIV-1 JR-CSF Env D477A (HIV-1 (isolate JR-CSF)) (UniProt P20871)
[17] = molecular target: HIV-1 93IN905 Env (pseudovirus) (HIV-1)
[18] = molecular target: HIV-1 Env of isolate 92UG046 (subtype D) (HIV-1)
[19] = molecular target: HIV-1 93TH305 Env (pseudovirus) (HIV-1)
[20] = molecular target: HIV-1 JR-CSF Env E466A (HIV-1 (isolate JR-CSF)) (UniProt P20871)
[21] = molecular target: HIV-1 JR-CSF Env D167A (HIV-1 (isolate JR-CSF)) (UniProt P20871)
[22] = molecular target: HIV-1 Env of isolate MGRM-F1-012 (subtype F) (HIV-1)
[23] = molecular target: HIV-1 Env of isolate MG RM-D-005 (subtype D) (HIV-1)
[24] = molecular target: HIV-1 Env of isolate MGRM-G-028 (HIV-1)
[25] = molecular target: HIV-1 Env of isolate MG RM-D-013 (subtype D) (HIV-1)
[26] = molecular target: HIV-1 Env of isolate MGRM-F1-017 (HIV-1)
[27] = molecular target: HIV-1 6535.3 Env (pseudovirus) (HIV-1)
[28] = molecular target: HIV-1 Env of isolate MGRM-C-020 (pseudovirus) (HIV-1 isolate MGRM-C-020, subtype C)
[29] = molecular target: HIV-1 MGRM-Chronic-B-024 Env (pseudovirus) (HIV-1)
[30] = molecular target: HIV-1 MGRM-Chronic-B-023 Env (pseudovirus) (HIV-1)
[31] = molecular target: HIV-1 Env of isolate 92TH021 (HIV-1)
[32] = molecular target: HIV-1 Env of isolate 92UG037 (HIV-1)
[33] = molecular target: HIV-1 Env of isolate 94UG103 (HIV-1)
[34] = molecular target: aMLV envelope on pseudovirus (negative control virus)
[35] = molecular target: HIV-1 JRCSF envelope glycoprotein (Env) on pseudovirus (HIV-1) (UniProt P20871)
[36] = molecular target: HIV-1 Env of isolate 92UG046 (HIV-1)
[37] = molecular target: HIV-1 Env of isolate MGRM-D-014 (HIV-1)
[38] = molecular target: HIV-1 Env of isolate 93IN905 (HIV-1)
[39] = molecular target: HIV-1 Env of isolate MGRM-Chronic-B-004 (HIV-1)

Sequence of 1443_C16 (PG16) (TCN-116) (antibody) (VH): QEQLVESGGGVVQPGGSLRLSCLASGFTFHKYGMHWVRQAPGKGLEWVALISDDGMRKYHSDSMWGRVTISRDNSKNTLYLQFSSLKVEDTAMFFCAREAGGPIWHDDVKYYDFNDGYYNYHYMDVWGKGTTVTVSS
Sequence of 1443_C16 (PG16) (TCN-116) (antibody) (VL): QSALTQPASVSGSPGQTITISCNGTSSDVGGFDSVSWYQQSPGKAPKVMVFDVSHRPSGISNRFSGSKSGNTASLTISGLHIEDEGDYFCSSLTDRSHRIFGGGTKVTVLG

Substance	IC50 (µg/ml), pseudovirus neutralization [1]	IC50 (µg/ml), pseudovirus neutralization [2]	IC50 (µg/ml), pseudovirus neutralization [3]	IC50 (µg/ml), pseudovirus neutralization [4]	IC50 (µg/ml), pseudovirus neutralization [5]	IC50 (µg/ml), pseudovirus neutralization [6]	IC50 [7]	IC50 (µg/ml), pseudovirus neutralization [8]	IC90 (pseudovirus neutralization) [9]	IC50 (µg/ml), pseudovirus neutralization [10]	IC50 [11]	IC50 [12]	IC50 (µg/ml), pseudovirus neutralization [13]	IC50 (µg/ml), pseudovirus neutralization [31]	other results
b12 (antibody)	17.1 µg/mL	> 50 µg/mL	25.9 µg/mL	45.6 µg/mL	4.17 µg/mL	0.42 µg/mL	7.64 µg/mL	> 50 µg/mL	47.3 µg/mL	4.01 µg/mL	> 50 µg/mL	> 50 µg/mL	> 50 µg/mL		
5145_B14 (PGT-127) (antibody)															IC50, pseudovirus neutralization [14]: 0.026 µg/mL; IC50 (µg/mL), pseudovirus neutralization [15]: > 50 µg/mL; Fold IC50 increase relative to wild-type [16]: 1.7 fold; IC50, pseudovirus neutralization [17]: 0.024 µg/mL; IC50 (µg/mL), pseudovirus neutralization [18]: > 50 µg/mL; IC50, pseudovirus neutralization [19]: 0.017 µg/mL; Fold IC50 increase relative to wild-type [20]: 0.9 fold; Fold IC50 increase relative to wild-type [21]: 1.6 fold; IC50 (µg/mL), pseudovirus neutralization [22]: > 50 µg/mL; IC50 (µg/mL), pseudovirus neutralization [23]: 6.02 µg/mL; IC50, pseudovirus neutralization [24]: 0.032 µg/mL; IC50 (µg/mL), pseudovirus neutralization [25]: > 50 µg/mL; IC50 [26]: > 50 µg/mL; IC50, pseudovirus neutralization [27]: 0.02 µg/mL; IC50 (µg/mL) neutralization [28]: > 50 µg/mL; IC50, pseudovirus neutralization [29]: > 50 µg/mL; IC50, pseudovirus neutralization [30]: > 50 µg/mL
1495_C14 (PGC14) (antibody)	> 50 µg/mL	> 50 µg/mL	> 50 µg/mL	> 50 µg/mL	6 µg/mL	9 µg/mL	25 µg/mL	> 50 µg/mL		> 50 µg/mL	12 µg/mL	> 50 µg/mL	> 50 µg/mL	> 50 µg/mL	
PGT-121 (antibody)															IC50 (µg/mL), pseudovirus neutralization [1]: > 50 µg/mL; IC50 (µg/mL), pseudovirus neutralization [3]: > 50 µg/mL; IC50 (µg/mL), pseudovirus neutralization [31]: > 50 µg/mL; IC50 (µg/mL), pseudovirus neutralization [32]: 0.031 µg/mL; IC50 (µg/mL), pseudovirus neutralization [33]: 2.52 µg/mL; Primary Neutralization Index (B cell culture well 4838 L06) [33]: 1.4; Primary Neutralization Index (B cell culture well 4873 E03) [33]: 0.8
4838_L06 (PGT-121) (antibody)															IC50 (ug/ml), neutralizing activity [34]: > 10 µg/mL; IC50, pseudovirus neutralization [14]: 0.251 µg/mL; IC50 (µg/mL), pseudovirus neutralization [15]: > 50 µg/mL; IC50, pseudovirus neutralization [17]: 0.005 µg/mL; neutralization IC80 [17]: 0.0302 µg/mL; neutralization IC90 [17]: 0.0645 µg/mL; IC50 (µg/mL), pseudovirus neutralization [18]: > 50 µg/mL; IC50, pseudovirus neutralization [19]: 0.007 µg/mL; IC50 (µg/mL), pseudovirus neutralization [22]: 1.91 µg/mL; IC50 (µg/mL), pseudovirus neutralization [23]: > 50 µg/mL; IC50 (µg/mL), pseudovirus neutralization [25]: > 50 µg/mL; IC50 [26]: 16.9 µg/mL; IC50, pseudovirus neutralization [27]: 0.005 µg/mL; IC50 (µg/mL) neutralization [28]: > 50 µg/mL; IC50, pseudovirus neutralization [29]: 0.195 µg/mL; IC50, pseudovirus neutralization [30]: 0.005 µg/mL
2F5 (antibody)	0.31 µg/mL	4.16 µg/mL	0.29 µg/mL	0.95 µg/mL	7.61 µg/mL	> 50 µg/mL	> 50 µg/mL	1.61 µg/mL	46.6 µg/mL	> 50 µg/mL	> 50 µg/mL	> 50 µg/mL	0.14 µg/mL		
1496_C09 (PG9) (TCN-109) (antibody)	0.04 µg/mL	0.05 µg/mL	2.97 µg/mL	1.91 µg/mL	2.08 µg/mL	0.006 µg/mL			3.37 µg/mL		0.01 µg/mL	1.52 µg/mL	0.03 µg/mL	0.09 µg/mL	IC50 (µg/mL), pseudovirus neutralization [1]: 0.04 µg/mL; IC50 (ug/ml), neutralizing activity [35]: 0.0048 µg/mL; IC50 neutralization [35]: 0.0048 µg/mL; IC80, neutralization [35]: 0.0181 µg/mL; IC90, neutralization [35]: 0.0391 µg/mL; IC95, neutralization [35]: 0.0798 µg/mL; IC50 (µg/mL), pseudovirus neutralization [36]: 1.86 µg/mL; IC50 (µg/mL), pseudovirus neutralization [3]: 20.6 µg/mL; IC50 (ug/ml), neutralizing activity [9]: 0.31 µg/mL; IC50 neutralization [9]: 0.31 µg/mL; IC80, neutralization [9]: 1.95 µg/mL; IC90, neutralization [9]: 5.54 µg/mL; IC50 (µg/mL), pseudovirus neutralization [31]: 0.059 µg/mL; IC50 [33]: 0.34 µg/mL; IC50 (µg/mL), pseudovirus neutralization [37]: 0.023 µg/mL
4877_D15 (PGT-122) (antibody)															IC50 (ug/ml), neutralizing activity [34]: > 10 µg/mL; IC50, pseudovirus neutralization [14]: 0.778 µg/mL; IC50 (ug/ml), neutralizing activity [35]: 0.0727 µg/mL; IC50 (µg/mL), pseudovirus neutralization [15]: > 50 µg/mL; IC50, pseudovirus neutralization [17]: 0.013 µg/mL; IC50 (µg/mL), pseudovirus neutralization [18]: > 50 µg/mL; IC50, pseudovirus neutralization [19]: 0.013 µg/mL; IC50 (µg/mL), pseudovirus neutralization [22]: > 50 µg/mL; IC50 (µg/mL), pseudovirus neutralization [23]: > 50 µg/mL; IC50, pseudovirus neutralization [24]: 0.01 µg/mL; IC50 (µg/mL), pseudovirus neutralization [25]: > 50 µg/mL; IC50 (ug/ml), neutralizing activity [9]: 1.46 µg/mL; IC50 [26]: > 50 µg/mL; IC50, pseudovirus neutralization [27]: 0.006 µg/mL; IC50 (µg/mL) neutralization [28]: 14 µg/mL; IC50, pseudovirus neutralization [29]: 2.31 µg/mL; IC50, pseudovirus neutralization [30]: 0.01 µg/mL
PGT-122 (antibody)															IC50 (µg/mL), pseudovirus neutralization [1]: > 50 µg/mL; IC50 (µg/mL), pseudovirus neutralization [3]: > 50 µg/mL; IC50 (µg/mL), pseudovirus neutralization [31]: > 50 µg/mL; IC50 (µg/mL), pseudovirus neutralization [32]: 0.068 µg/mL; IC50 (µg/mL), pseudovirus neutralization [33]: 2.04 µg/mL
2G12 (antibody)	> 50 µg/mL	> 50 µg/mL	> 50 µg/mL	0.42 µg/mL	0.55 µg/mL	> 50 µg/mL	> 50 µg/mL	> 50 µg/mL	> 50 µg/mL	> 50 µg/mL	> 50 µg/mL	> 50 µg/mL	> 50 µg/mL	> 50 µg/mL	
PGV04 (antibody)															IC50 (µg/mL), pseudovirus neutralization [1]: 0.569 µg/mL; IC50 (µg/mL), pseudovirus neutralization [36]: 22.4 µg/mL; IC50 (µg/mL), pseudovirus neutralization [3]: 0.063 µg/mL; IC50 (µg/mL), pseudovirus neutralization [31]: 1.29 µg/mL; IC50 [32]: 0.145 µg/mL; IC50 [33]: 0.202 µg/mL; IC50 (µg/mL), pseudovirus neutralization [37]: 0.194 µg/mL
1443_C16 (PG16) (TCN-116) (antibody)	0.01 µg/mL	0.11 µg/mL	4.33 µg/mL	24 µg/mL	19.3 µg/mL	0.003 µg/mL	0.02 µg/mL	> 50 µg/mL	1.59 µg/mL	0.24 µg/mL	0.002 µg/mL	1.8 µg/mL	0.01 µg/mL	0.1 µg/mL	
4E10 (antibody)	0.55 µg/mL	4.87 µg/mL	0.85 µg/mL	2.17 µg/mL	12.3 µg/mL	0.53 µg/mL	2.02 µg/mL	2.75 µg/mL	> 50 µg/mL	2.88 µg/mL	3.49 µg/mL	1.47 µg/mL	0.04 µg/mL	1.17 µg/mL	
VRC01 (antibody)															neutralization IC50 [38]: 0.138 µg/mL; IC50, pseudovirus neutralization [26]: 1.08 µg/mL; IC50 [39]: 0.055 µg/mL; IC50, pseudovirus neutralization [37]: 0.332 µg/mL
